Experiment: soluble fraction after stress (log2 fold change); higher = more stays soluble; pooled small domains, quantitative proteomics
Conditions: stress: 50 degC
How it was run: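 Quantitative proteomics served as the high-throughput read-out for pooled custom libraries of small protein domains. Each was stressed at 50°C. Aggregation propensity is expressed as the base-two log fold change in soluble protein after stress. A higher value means a larger share of the protein remains in solution.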

Sequence	soluble fraction (log2)
HMRKRLLQLVHIGKSQLGMDDETYRSLLSQQFYQNSAKNISYSELVKLVKILQQKGAKIRLPH	-1.9
HMNNISKKIKELREQNNITQNKLANDLFIKQQTVAQWENGSRALKADSIISLAKYFNVSTDYLLGLTEN	-0.339
HMSSFSESFHKALNNLDDKHKSVFSLRHFEGFSMKEIAETLNINEGTVKSRLFYATKTLAGALKEF	-2.74
HMVDFHAAYSILRIAPGASWQEIQAAYEKLNDAWREDRYPQVPFWNEKAAFKRREVEQAYEKLRKFHALRH	-0.845
HMEDLDKIISAYLDENPQIVSDYGKGNKKAVNSAIGFVMKSTGGKYSSSDIVDAVRSMIVSISV	-0.482
HMKDHKSKWMAKTELDSIAKNLSKKHAISLDYEEDGTRFYAGGQSPLGIGRLFTVFVAPRNGHWSDQLR	0.189
HMSRDYKTELQERLQVNGPVKIEYQVIAEDESKPSFKVQLLVNDKKISEGQGRNKKAAEQQAAQAAL	0.0625
HMKEVKRDQVIEAARKLFHQFGFKKVSMDEIAKEAGVTKKTIYMYFESKEELLKYFIQEEISN	-0.224
HMGVSLKEIQENLSLIDDAAQKLASGQGTVDDAVGMGNAGKDIYDNIEGYVSSPKEFINGVLSSV	-0.104
HMDDINVSNSKNIVPNVTGHTGSKAIPVLENLGLDVQYSGFGKVTNQSIPAGTRFKKGETIYLMLE	0.0979
HMNQIFAPMPGLVLEVKLSEGDVVAEGESAIILEAMKMENIIKSPINGIVKKVHVKKGQTIEKNTLIISFK	-1.15
HMIFELDSDRASAGNTIGKLVSKWNNTEVASVQFVSGDDTSNKDNASIYLNTRSGGSGNLVRLRITK	0.168
HMETLEDHRKKTRQQLFDALSHLLQTSTFESLTMAKIAEEAGVGRTAVYNHFQDKEALLLAFITYETGQ	-1.05
HMAFAVWVKLVAIGPNYAQLEIEQGTQRNVRTLRPGDDAPEGVRLLSLTPTHAEVQANGIARKLALGQGMA	-0.381
HMSDTFENILQRLIKATGRKNASEMANALGLSPQSVYSAKTKGKIPPAWIFAAAERFNASADWIYFGY	-1.01
HMDVNSRIRQFLKKMKITVQTFESSIGKTNGYIAHTKSPTAGVLAEIAKVYPDLNLDWLITGEGEMLKN	-0.468
HMSLPQSKDAVITILRTLPQLDTRAPEVYKLLGPHALDIILEDPEQVAKKINHVGVATAKLWQQALLGFK	-0.2
HMDEWDPAILYVGLDYEDAAQIATRLATSGVPYRLSPDGTMITVPDDQVNNMRLTLAGEGFPH	-0.0702
HMINLRTALNNAGVMQKELSDILYMTPQDVNRRFSGVTKWKPLEKRAIMQFLEDRGFEYTEEQLF	-0.532

Sequence	soluble fraction (log2)
HMISEKEIKIIEDILARWNGKLTWDDFTSKVAKKLNLPSLSKFTLMGYPEIKQAFLTRKQTLK	-0.328
HMGVHSVVPDIKNKHYGEAKAILAANGLSIEISDSIYDRSVAPGTVVESWPKAGAIVKGDRAVFVTLTAF	-1.28
HMTRPLVILEDVKFPSYNEIVSLTLPDGTRRGGQVLEVSGNKAIVQVFEGTSGIDVKDTHIELTKSS	0.0245
HMVERQVTVPNLTGLGVADAQRLAQSMELDIEVLGEQESTDARPGAVLQQTPGAGTRAAAGSVVSVLV	0.0752
HMSNSGFVKNNGKTEFYDASGRQAKSSWINISGKWYYFDLNGTMVTGWQRISNKWYYFLEDGSK	0.0383
HMISVTNRTGTGLNDVKVEVFPVGRQMVFSATVFRVESEATNRFSLGELRGSDGTPFNQRVHRPESI	0.188
HMSSSYTEMQLERFKELLNKETLLSSEKNELKNLISDFDKISEIVSPLVVGAYLQLKNEHIETINSLG	-0.192
HMHKIRRQTKITKSLLDQIEGIGSSRKKALLNHFGSAKAVGEAGETDLGTVKGISNSLAKKIYDFFHAT	-0.281
HMNIEDFKDKVKELKQYTYQELVEDVKLKTDRADVILPASKIYLEAMQQAKVDSIIVPKVGLAEGVAR	0.0593
HMITNESEIERIVEAIISKNPESIAQYRSGITKVLGFLVGQVMKETKGRANPALVNRIIISKME	-0.281
HMKQNNYATKKELNFFVSRLISLLSYRDFFNPIEKKESMINNIEAIFTRSSLTSQELRTLHGIISNLVE	-3.07
HMSVTIENQINTYFQTRDKISRDELVALIKKDFANWTDNTINIYVSSLQKRGIIHSLSRGMYALGN	-1.98
HMGNKWKPIILYLLSNGSMRFGMLNALIPTISKKVLTNQLKELENDGLLLRQSFAEIPPRVEYSLTEKA	-1.58
HMGNNSIDIKDVIYNLVEISQLQAFDIVKHFKTWENLVNKPDELDTVIDGDSDIVDRIKYKIKSLS	0.109
HMKAAQDQDQAATLLQKATGVNQDQAKLAATVLFKEQSVTPIRQAIASGDYYQAYQDAKSLQQQ	-0.144
HMEPGEVQVDGLRFIAQPQERNDFEVALEQFRAGNFAAARKSFAAFINTYKQSGYLPSARFW	-0.0516
HMKSISMSKLRHLLQLYVQGRSKKLISEQTGIARNTLKKYIKEFSEAGLSLEALLALSDKELEDLFVK	-1.01
HMDSRQIIAALQARYADETGITALKIKFNNVLGYFVDVPARYGDPLMKPPLSETFIHRQTLASNVRF	-0.0732
